Read-outs that look alike come from different tables or passages of the source.
Test: In vivo biodistribution by organ and tissue extraction
Set-up: species or system male Wistar rats
Conditions: male, Wistar, total radioactivity, rat, mean ± SD; for tissue uptake dose at 48 h / SUV at 48 h: 2880 min p.i.; for tissue uptake dose at 5 min / SUV at 5 min: 5 min p.i.; for tissue uptake dose at 1 h / SUV at 1 h: 60 min p.i.; for tissue uptake dose at 4 h / SUV at 4 h: 240 min p.i.; for tissue uptake dose at 24 h / SUV at 24 h: 1440 min p.i.
Description: The present study includes data obtained from a total of 50 animals. Four animals (body weight 227 ± 10 g) for each time point were injected intravenously into a tail vein or subcutaneously with approximately 0.3 MBq ([…]) [^64Cu]Cu-NOTA-HsTX1[R14A] conjugate in 0.5 mL electrolyte solution E-153 (Serumwerk Bernburg, Germany). Animals were euthanised at 5, 60, 240, 1440 and 2880 min post-injection. Blood and the major organs were collected, weighed, and counted in a cross-calibrated γ-counter (Isomed 1000, Isomed GmbH, Dresden) and Wallac WIZARD Automatic Gamma Counter (PerkinElmer, Germany). The radioactivity of the tissue samples was decay-corrected and calibrated by comparing the counts in tissue with the counts in aliquots of the injected radiotracer that had been measured in the γ-counter at the same time. The activity in the selected organs was expressed as percent-injected dose per organ (% ID) and the activity concentration in tissues and organs as standardised uptake value (SUV). Values are quoted as mean ± standard error of mean (SEM) for each group of four animals.

[1] = lung, iv, 0.3 MBq, i.v., n=4, read-out: Lung activity amount
[2] = lung, iv, 0.3 MBq, i.v., n=8, read-out: Lung activity amount
[3] = lung, iv, i.v., n=4, read-out: Lung SUV
[4] = lung, iv, i.v., n=8, read-out: Lung SUV
[5] = lung, sc, 0.3 MBq, s.c., n=4, read-out: Lung activity amount
[6] = lung, sc, s.c., n=4, read-out: Lung SUV
[7] = muscle, iv, i.v., n=4, read-out: Muscle SUV
[8] = muscle, iv, i.v., n=8, read-out: Muscle SUV
[9] = muscle, sc, s.c., n=4, read-out: Muscle SUV
[10] = pancreas, iv, 0.3 MBq, i.v., n=4, read-out: Pancreas SUV
[11] = pancreas, iv, 0.3 MBq, i.v., n=4, read-out: Pancreas activity amount
[12] = pancreas, iv, 0.3 MBq, i.v., n=8, read-out: Pancreas SUV
[13] = pancreas, iv, 0.3 MBq, i.v., n=8, read-out: Pancreas activity amount
[14] = pancreas, sc, 0.3 MBq, s.c., n=4, read-out: Pancreas SUV
[15] = pancreas, sc, 0.3 MBq, s.c., n=4, read-out: Pancreas activity amount
[16] = spleen, iv, 0.3 MBq, i.v., n=4, read-out: Spleen SUV
[17] = spleen, iv, 0.3 MBq, i.v., n=4, read-out: Spleen activity amount
[18] = spleen, iv, 0.3 MBq, i.v., n=8, read-out: Spleen SUV
[19] = spleen, iv, 0.3 MBq, i.v., n=8, read-out: Spleen activity amount
[20] = spleen, sc, 0.3 MBq, s.c., n=4, read-out: Spleen SUV
[21] = spleen, sc, 0.3 MBq, s.c., n=4, read-out: Spleen activity amount
[22] = stomach, iv, 0.3 MBq, i.v., n=4, read-out: Stomach activity amount
[23] = stomach, iv, 0.3 MBq, i.v., n=8, read-out: Stomach activity amount
[24] = stomach, sc, 0.3 MBq, s.c., n=4, read-out: Stomach activity amount
[25] = testes, iv, 0.3 MBq, i.v., n=4, read-out: Testes SUV

CSCC[C@@H]1NC(=O)[C@@H]2CSSC[C@H](NC(=O)[C@H](CO)NC(=O)[C@H](C)NC(=O)COCCOCCNC(=O)CN3CCN(CC(=O)O)CCN(CC(=O)O)CC3)C(=O)N[C@@H](CCCNC(=N)N)C(=O)N[C@@H]([C@@H](C)O)C(=O)N3CCC[C@H]3C(=O)N[C@@H](CCCCN)C(=O)N[C@@H](CC(=O)O)C(=O)N[C@H]3CSSC[C@H](NC(=O)[C@H](CCCCN)NC(=O)[C@H](CCCNC(=N)N)NC(=O)[C@H](CC(N)=O)NC1=O)C(=O)N[C@@H](CCCCN)C(=O)N[C@H]1CSSC[C@H](NC(=O)[C@@H]4CCCN4C(=O)[C@H](CC(=O)O)NC(=O)[C@H](C)NC3=O)C(=O)N[C@@H](C)C(=O)N[C@@H](CCCCN)C(=O)N[C@@H](CCC(=O)O)C(=O)N[C@@H]([C@@H](C)O)C(=O)NCC(=O)N[C@@H](CSSC[C@@H](C(N)=O)NC(=O)[C@H](CCCNC(=N)N)NC(=O)[C@H](CC(N)=O)NC1=O)C(=O)N1CCC[C@H]1C(=O)N[C@@H](Cc1ccc(O)cc1)C(=O)NCC(=O)N[C@@H](CCCCN)C(=O)N2 [[^64Cu]Cu-NOTA-HsTX1[R14A], metal not drawn]
tissue uptake dose at 48 h (liver, sc, 0.3 MBq, s.c., n=4, read-out: Liver activity amount): 7.85 ± 0.49 %ID
tissue uptake dose at 5 min [1]: 1.44 ± 0.18 %ID
tissue uptake dose at 1 h [2]: 1.24 ± 0.3 %ID
tissue uptake dose at 4 h [1]: 0.92 ± 0.12 %ID
tissue uptake dose at 24 h [2]: 0.5 ± 0.05 %ID
tissue uptake dose at 48 h [1]: 0.46 ± 0.06 %ID
SUV at 5 min [3]: 2.87 ± 0.32 SUV
SUV at 1 h [4]: 1.98 ± 0.17 SUV
SUV at 4 h [3]: 1.24 ± 0.1 SUV
SUV at 24 h [4]: 0.78 ± 0.13 SUV
SUV at 48 h [3]: 0.55 ± 0.03 SUV
tissue uptake dose at 1 h [5]: 1.64 ± 0.24 %ID
tissue uptake dose at 4 h [5]: 1.04 ± 0.08 %ID
tissue uptake dose at 24 h [5]: 0.49 ± 0.02 %ID
tissue uptake dose at 48 h [5]: 0.33 ± 0.01 %ID
SUV at 1 h [6]: 2.1 ± 0.33 SUV
SUV at 4 h [6]: 1.32 ± 0.12 SUV
SUV at 24 h [6]: 0.63 ± 0.02 SUV
SUV at 48 h [6]: 0.47 ± 0.01 SUV
SUV at 5 min [7]: 0.43 ± 0.03 SUV
SUV at 1 h [8]: 0.17 ± 0.06 SUV
SUV at 4 h [7]: 0.07 SUV
SUV at 24 h [8]: 0.18 ± 0.02 SUV
SUV at 48 h [7]: 0.19 ± 0.01 SUV
SUV at 1 h [9]: 0.15 ± 0.02 SUV
SUV at 4 h [9]: 0.08 ± 0.01 SUV
SUV at 24 h [9]: 0.19 ± 0.01 SUV
SUV at 48 h [9]: 0.16 SUV
SUV at 5 min [10]: 0.64 ± 0.09 SUV
tissue uptake dose at 5 min [11]: 0.11 ± 0.03 %ID
SUV at 1 h [12]: 0.3 ± 0.04 SUV
tissue uptake dose at 1 h [13]: 0.06 ± 0.02 %ID
SUV at 4 h [10]: 0.24 ± 0.01 SUV
tissue uptake dose at 4 h [11]: 0.08 %ID
SUV at 24 h [12]: 0.62 ± 0.16 SUV
tissue uptake dose at 24 h [13]: 0.2 ± 0.16 %ID
SUV at 48 h [10]: 0.32 ± 0.01 SUV
tissue uptake dose at 48 h [11]: 0.08 ± 0.01 %ID
SUV at 1 h [14]: 0.29 ± 0.03 SUV
tissue uptake dose at 1 h [15]: 0.11 ± 0.03 %ID
SUV at 4 h [14]: 0.25 SUV
tissue uptake dose at 4 h [15]: 0.08 ± 0.01 %ID
SUV at 24 h [14]: 0.48 ± 0.02 SUV
tissue uptake dose at 24 h [15]: 0.15 ± 0.01 %ID
SUV at 48 h [14]: 0.28 ± 0.02 SUV
tissue uptake dose at 48 h [15]: 0.07 ± 0.01 %ID
SUV at 5 min [16]: 4.06 ± 0.6 SUV
tissue uptake dose at 5 min [17]: 0.83 ± 0.12 %ID
SUV at 1 h [18]: 3.42 ± 0.42 SUV
tissue uptake dose at 1 h [19]: 0.79 ± 0.11 %ID
SUV at 4 h [16]: 2.4 ± 0.1 SUV
tissue uptake dose at 4 h [17]: 0.67 ± 0.06 %ID
SUV at 24 h [18]: 0.83 ± 0.26 SUV
tissue uptake dose at 24 h [19]: 0.18 ± 0.04 %ID
SUV at 48 h [16]: 0.56 ± 0.05 SUV
tissue uptake dose at 48 h [17]: 0.16 ± 0.01 %ID
SUV at 1 h [20]: 4 ± 0.21 SUV
tissue uptake dose at 1 h [21]: 1.08 ± 0.03 %ID
SUV at 4 h [20]: 2.84 ± 0.25 SUV
tissue uptake dose at 4 h [21]: 0.75 ± 0.03 %ID
SUV at 24 h [20]: 0.59 ± 0.03 SUV
tissue uptake dose at 24 h [21]: 0.15 %ID
SUV at 48 h [20]: 0.47 ± 0.04 SUV
tissue uptake dose at 48 h [21]: 0.15 ± 0.01 %ID
tissue uptake dose at 5 min [22]: 0.67 ± 0.09 %ID
tissue uptake dose at 1 h [23]: 1.28 ± 1.2 %ID
tissue uptake dose at 4 h [22]: 1.52 ± 1.06 %ID
tissue uptake dose at 24 h [23]: 1.56 ± 1.04 %ID
tissue uptake dose at 48 h [22]: 1.46 ± 0.37 %ID
tissue uptake dose at 1 h [24]: 1.14 ± 0.45 %ID
tissue uptake dose at 4 h [24]: 0.6 ± 0.03 %ID
tissue uptake dose at 24 h [24]: 0.82 ± 0.07 %ID
tissue uptake dose at 48 h [24]: 1.72 ± 1.02 %ID
SUV at 5 min [25]: 0.24 ± 0.03 SUV
tissue uptake dose at 5 min (testes, iv, 0.3 MBq, i.v., n=4, read-out: Testes activity amount): 0.27 ± 0.05 %ID
SUV at 1 h (testes, iv, 0.3 MBq, i.v., n=8, read-out: Testes SUV): 0.16 ± 0.01 SUV
tissue uptake dose at 1 h (testes, iv, 0.3 MBq, i.v., n=8, read-out: Testes activity amount): 0.23 ± 0.02 %ID
SUV at 4 h [25]: 0.13 ± 0.01 SUV
